# Data from KR20160085666A (dated 2016).
# Biological target: T1, c-Met-Fc (#358-MT/CF, R&D Systems) (UniProt P08581 25-932)
# T1 construct: Bought reagent; also called 항원(c-Met); not shown: Fc part of the bought fusion
# Assay: SPR, Biacore T100; antibody captured on human Fab binder on a CM5 chip, c-Met-Fc injected at various concentrations
# T1 sequence (P08581 25-932 limits assumed): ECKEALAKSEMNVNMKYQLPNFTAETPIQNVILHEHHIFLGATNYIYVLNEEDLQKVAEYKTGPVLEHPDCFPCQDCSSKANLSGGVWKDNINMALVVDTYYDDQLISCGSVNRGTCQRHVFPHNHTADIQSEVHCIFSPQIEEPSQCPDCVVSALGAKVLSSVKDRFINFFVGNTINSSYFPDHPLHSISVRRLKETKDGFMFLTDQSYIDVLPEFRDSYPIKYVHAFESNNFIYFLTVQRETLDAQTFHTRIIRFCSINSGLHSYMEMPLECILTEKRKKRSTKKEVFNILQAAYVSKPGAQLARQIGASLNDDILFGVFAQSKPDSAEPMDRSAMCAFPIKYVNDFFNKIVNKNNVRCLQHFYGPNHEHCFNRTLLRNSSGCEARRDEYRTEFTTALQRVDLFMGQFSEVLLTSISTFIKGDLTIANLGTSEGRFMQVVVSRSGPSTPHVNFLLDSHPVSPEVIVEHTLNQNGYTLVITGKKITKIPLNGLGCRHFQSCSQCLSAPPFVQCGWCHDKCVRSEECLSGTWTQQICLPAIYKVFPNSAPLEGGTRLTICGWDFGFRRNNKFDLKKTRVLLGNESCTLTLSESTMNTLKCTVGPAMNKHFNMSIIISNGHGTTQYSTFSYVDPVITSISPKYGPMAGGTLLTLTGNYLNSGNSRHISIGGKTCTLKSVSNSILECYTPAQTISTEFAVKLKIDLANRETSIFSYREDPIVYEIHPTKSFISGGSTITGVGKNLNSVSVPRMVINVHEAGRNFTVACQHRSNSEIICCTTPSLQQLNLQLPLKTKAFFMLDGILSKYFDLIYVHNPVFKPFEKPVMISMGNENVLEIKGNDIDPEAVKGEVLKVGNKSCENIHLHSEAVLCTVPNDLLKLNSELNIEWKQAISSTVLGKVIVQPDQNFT
row,Kd [nM],Binder
1,0.057,"항 c-Met 항체 (L3-1Y/IgG2), GSKO301 세포 생산 (antibody, V domains shown, Produced in GS-KO CHO cells that express the antibody only (GSKO301); also called STD (12A37); GSKO301 생산 항체) VH: EVQLVESGGGLVQPGGSLRLSCAASGFTFTDYYMSWVRQAPGKGLEWLGFIRNKANGYTTEYSASVKGRFTISRDNSKNTLYLQMNSLRAEDTAVYYCARDNWFAYWGQGTLVTVSS VL: DIQMTQSPSSLSASVGDRVTITCKSSQSLLASGNQNNYLAWYQQKPGKAPKMLIIWASTRVSGVPSRFSGSGSGTDFTLTISSLQPEDFATYYCQQSYSRPYTFGQGTKVEIKR"
2,0.076,"항 c-Met 항체 (L3-1Y/IgG2), GSKO301 GOT1 세포 생산 (antibody, V domains shown, Produced in GS-KO CHO cells that express the antibody and overexpress GOT1 (GSKO301 GOT1); also called GSKO301 GOT1 생산 항체; anti-c-Met antibody L3-1Y/IgG2) VH: EVQLVESGGGLVQPGGSLRLSCAASGFTFTDYYMSWVRQAPGKGLEWLGFIRNKANGYTTEYSASVKGRFTISRDNSKNTLYLQMNSLRAEDTAVYYCARDNWFAYWGQGTLVTVSS VL: DIQMTQSPSSLSASVGDRVTITCKSSQSLLASGNQNNYLAWYQQKPGKAPKMLIIWASTRVSGVPSRFSGSGSGTDFTLTISSLQPEDFATYYCQQSYSRPYTFGQGTKVEIKR"
